According to patent US20220259593A1, “CONTROL OF MAMMALIAN GENE DOSAGE USING CRISPR” (The Regents of the University of California, priority 2019, published 2022):

The molecules below were run on K562 CRISPRi cells (assay: Constant region variant library pooled growth screen, K562). Details: sgRNA constant region variants; activity relative to the original, un-modified constant region cr995.
Type: cell-based, human
In short: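 Growth screens in K562 CRISPRi cells were harvested 4-8 days post-selection at >2000× library coverage. Each variant's phenotype was referenced to the unmodified constant region with the same targeting sequence.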

Row | Molecule | Mean relative activity
1 | cr623 (nucleic acid, listed as DNA, chemistry not fully specified) guide: GTTTAAGAGCTAAGCTGGAAACAGCATAGCAAGTTTAAATAAGGCTAGTCCGTTATCACTGTGAAAACAGGGCACCGAGTCGGTGCT | 1.041
2 | cr687 (nucleic acid, listed as DNA, chemistry not fully specified) guide: GTTTAAGAGCTAAGCTGGAAACAGCATAGCAAGTTTAAATAAGGCTAGTCCGTTATCAACTTGAAAAAGTGGCACTGAGTCGGTGCT | 1.042
3 | cr756 (nucleic acid, listed as DNA, chemistry not fully specified) guide: GTTTAAGAGCTAAGCTGGAAACAGCATAGCAAGTTTAAATAAGGTTAATCCGTTATCAACTTGAAAAAGTGGCAACGAGTCGTTGCT | 1.041

Same assay, conditions: sgRNA constant region variants; relative to the original, un-modified constant region cr995; CRISPRi

Row | Molecule | Mean relative activity
4 | cr473 (nucleic acid, listed as DNA, chemistry not fully specified) guide: GTTTAAGAGCTAAGCTGGAAACAGCATAGCAAGTTTAAATAAGGCTAGTCCGATATAAACTTGCAAAAGTGGCACCGAGTCGGTGCT | 0.3892
5 | cr127 (nucleic acid, listed as DNA, chemistry not fully specified) guide: GTTTAAGAGCTAAGCTGGAAACAGCATAGCAAGTTTAAATATGGCTAGTCCGTTATCAACTTGAGAAAGTGGCACCGACTCGGTGCT | 0.3659
6 | cr813 (nucleic acid, listed as DNA, chemistry not fully specified) guide: GTTTAAGAGCTAAGCTGGAAACAGCATAGCAAGTTTAAATAAGGCTAGTCCGTTATCTACTTGAAAAAGTGGCACCGAGTCGGTGCT | 0.3803
7 | cr471 (nucleic acid, listed as DNA, chemistry not fully specified) guide: GTTTAAGAGCTAAGCTGGAAACAGCATAGCAAGTTTAAATAAGGCTAGTCCGTTATCAACTTGAAAAAGTGTCACACAGTGTGTGAT | 0.3625
8 | cr459 (nucleic acid, listed as DNA, chemistry not fully specified) guide: GTTTAAGAGCTAAGCTGGAAACAGCATAGCGAGTTTAAATAAGGCTAGTCCGTTATCTACTTGAAAAAGTGGCACCGAGTCGGTGCT | 0.3837
9 | cr856 (nucleic acid, listed as DNA, chemistry not fully specified) guide: GTTTAAGAGCTAAGCTGGAAACAGCATAGCAAGTTTAAATAAGGATATTCCGTTATCAAATTGAAAAATTGGCTCCGAGTCGGAGCT | 0.3826
10 | cr182 (nucleic acid, listed as DNA, chemistry not fully specified) guide: GTTTAAGAGCTAAGCTGGAAACAGCATAGCAATTTTAAATAAGGCTAGTCCGTTATCAACTTGAAAAAGTGGCACCGAGTCGGTGCT | 0.3559
11 | cr003 (nucleic acid, listed as DNA, chemistry not fully specified) guide: TTTTAAGAGCTAAGCTGGAAACAGCATAGCAAGTTTAAATAAGGCTAGTCCGTTATCAACTTGAAAAAGTGGCACCGAGTCGGTGCT | 0.3678
12 | cr315 (nucleic acid, listed as DNA, chemistry not fully specified) guide: GTTTAAGAGCTAAGCTGGAAACAGCATAGCAAGTTTAAATAAAGCTAGTCTGTTATCAACTGGAAACAGTGGCCCCGAGTCGGGGCT | 0.3642
13 | cr966 (nucleic acid, listed as DNA, chemistry not fully specified) guide: GTTTAAGAGCTAAGCTGGAAACAGCATAGCAAGTTTAAATAAGGCTAGTCCGTTATCAAGTTGAAAAACTGGCATGGAGTCCATGCT | 0.3699
14 | cr343 (nucleic acid, listed as DNA, chemistry not fully specified) guide: GTTTAAGAGCTAAGCTGGAAACAGCATAGCAAGTTTAAATAAGGCTAGTCCGTTATCATGAAGAAAATGAGGCACCGAGTCGGTGCT | 0.3733
15 | cr398 (nucleic acid, listed as DNA, chemistry not fully specified) guide: GTTTAAGAGCTAAGCTGGAAACAGCATAGCAAGTTTGAATAAGGCTAGTCCGTTATCAACTTGAAAAAGTGGCACCGAGTCGGTGCT | 0.3667
16 | cr755 (nucleic acid, listed as DNA, chemistry not fully specified) guide: GTTTAAGAGCTAAGCTGGAAACAGCATAGCAAGCTTAAATAAGGCTAGTCCGTTATCAACTTGAAAAAGTGGCTCCGAGTCGGAGCT | 0.3814
17 | cr201 (nucleic acid, listed as DNA, chemistry not fully specified) guide: GTTTAAGAGCTAAGCTGGAAACAGCATAGCAAGTTTAAATAAAGCTAGTCTGTTATCAACTTGAAAAAGTGGCACCGAGTCGGTGCT | 0.3731
18 | cr252 (nucleic acid, listed as DNA, chemistry not fully specified) guide: GTTTAAGAGCTAAGCTGGAAACAGCATAGCAAGTTTAAATAAGGCTAGTCCATTATCAACTTGAAAAAGTGGCACCGAGTCGGTGCT | 0.3581
19 | cr689 (nucleic acid, listed as DNA, chemistry not fully specified) guide: GTTTAAGAGCTAAGCTGGAAACAGCATAGCAAGCTTAAATAAGGCTAGTCCGTTTTCAACTTGATAAAGTGGCACCGAGTCGGTGCT | 0.3547
20 | cr196 (nucleic acid, listed as DNA, chemistry not fully specified) guide: GTTTAAGAGCTAAGCTGGAAACAGCATAGCAAGTTTAAATAAGGCTAGTCCGTTATCAACTTGAAAAAGTGGCAGCCAGTGGCTGCT | 0.3626
21 | cr527 (nucleic acid, listed as DNA, chemistry not fully specified) guide: GTTTAAGAGCTAAGCTGGAAACAGCATAGCAAGTGTAAATAAGGCTAGTCCGTTATCAACTTGAAAAAGTGGCACCGAGTCGGTGCT | 0.3802
22 | cr895 (nucleic acid, listed as DNA, chemistry not fully specified) guide: GTTTAAGAGCTAAGCTGGAAACAGCATAGCAATTTTAAATAAGGCTAGTCCGTTATCAACTTGTAAAAGTGGCACCGAGTCGGTGCT | 0.3709
23 | cr351 (nucleic acid, listed as DNA, chemistry not fully specified) guide: GTTTAAGAGCTAAGCTGGAAACAGCATAGCAAGTTTAAATAAGGCTCGTCCGTTATAAACTTAAAAAAGTGGCACCGAGTCGGTGCT | 0.3557
24 | cr523 (nucleic acid, listed as DNA, chemistry not fully specified) guide: GTTTAAGAGCTAAGCTGGAAACAGCATAGCAAGCTTAAATAAGGCTAGTCCGTTATCAACTTGAAAAAGTGTCACCGAGTCGGTGAT | 0.3746
25 | cr192 (nucleic acid, listed as DNA, chemistry not fully specified) guide: GTTTAAGAGCTAAGCTGGAAACAGCATAGCAAGTTTAAATAAGGCTAGTCCGTTATCAACTTGAAAAAGTGGCCCCCAGTGGGGGCT | 0.3609
26 | cr200 (nucleic acid, listed as DNA, chemistry not fully specified) guide: GTTTAAGAGCTAAGCTGGAAACAGCATAGCAAATTTAAATAAGGCTAGTCCGTTATCAACTTGAAAAAGTGGCACCGAGTCGGTGCC | 0.3799
27 | cr924 (nucleic acid, listed as DNA, chemistry not fully specified) guide: GTTTAAGAGCTAAGCTGGAAACAGCATAGCAAGTTTAAATAAAGCTAGTCTGTTATCAACTTGAAAAAGTGGCGCCGAGTCGGCGCT | 0.3638
28 | cr088 (nucleic acid, listed as DNA, chemistry not fully specified) guide: ATTTAGGAGCTAAGCTGGAAACAGCATAGCAAGTTTAAATAAGGCTAGTCCGTTATCAACTTGAAAAAGTGGCACCGAGTCGGTGCT | 0.3745
29 | cr404 (nucleic acid, listed as DNA, chemistry not fully specified) guide: GTTTAAGAGCTAAGCTGGAAACAGCATAGCAAGTTTAAATAAGGCTAGTCCGTTATCCACTTGATAAAGTGGCACCGAGTCGGTGCT | 0.3784
30 | cr249 (nucleic acid, listed as DNA, chemistry not fully specified) guide: GTTTAAGAGCTAAGCTGGAAACAGCATAGCAAGTTTAAATAAGGCTAGTCCGTGATTAACTTGAAAAAGTGGCACCGAGACGGTGCT | 0.3886
